This is an account of results in article PMC12949252.

One assay has as its target SEL1L-S658P-FLAG (mouse). The experiment in a line: co-IP.
A further assay has as its target SEL1L-G585D-FLAG (mouse). The experiment in a line: co-IP.

For the molecule “HRD1 (endogenous, HEK293T) (from UniProt Q86TM6 1-617) (enzyme)”, the percent reduction of binding against WT in the assay with SEL1L-S658P-FLAG (mouse) stood at 70%.

B1: OS9 (endogenous, HEK293T) (natural protein)
chain: GGVGSLNLEELSEMRYGIEILPLPVMGGQSQSSDVVIVSSKYKQRYECRLPAGAIHFQREREEETPAYQGPGIPELLSPMRDAPCLLKTKDWWTYEFCYGRHIQQYHMEDSEIKGEVLYLGYYQSAFDWDDETAKASKQHRLKRYHSQTYGNGSKCDLNGRPREAEVRFLCDEGAGISGDYIDRVDEPLSCSYVLTIRTPRLCPHPLLRPPPSAAPQAILCHPSLQPEEYMAYVQRQADSKQYGDKIIEELQDLGPQVWSETKSGVAPQKMAGASPTKDDSKDSDFWKMLNEPEDQAPGGEEVPAEEQDPSPEAADSASGAPNDFQNNVQVKVIRSPADLIRFIEELKGGTKKGKPNIGQEQPVDDAAEVPQREPEKERGDPERQREMEEEEDEDEDEDEDEDERQLLGEFEKELEGILLPSDRDRLRSEVKAGMERELENIIQETEKELDPDGLKKESERDRAMLALTSTLNKLIKRLEEKQSPELVKKHKKKRVVPKKPPPSPQPTEEDPEHRVRVRVTKLRLGGPNQDLTVLEMKRENPQLKQIEGLVKELLEREGLTAAGKIEIKIVRPWAEGTEEGARWLTDEDTRNLKEIFFNILVPGAEEAQKERQRQKELESNYRRVWGSPGGEGTGDLDEFDF
In the assay with SEL1L-G585D-FLAG (mouse), B1 registered a percent reduction of binding against WT of 90%.
